According to article PMC4137706 (Molecular Biology and Evolution, 2014):

T1: Full-length human Flotillin 1 N-terminally tagged with GST (GST-HsFlotillin 1) (human, UniProt O75955 1-427)
T1 sequence: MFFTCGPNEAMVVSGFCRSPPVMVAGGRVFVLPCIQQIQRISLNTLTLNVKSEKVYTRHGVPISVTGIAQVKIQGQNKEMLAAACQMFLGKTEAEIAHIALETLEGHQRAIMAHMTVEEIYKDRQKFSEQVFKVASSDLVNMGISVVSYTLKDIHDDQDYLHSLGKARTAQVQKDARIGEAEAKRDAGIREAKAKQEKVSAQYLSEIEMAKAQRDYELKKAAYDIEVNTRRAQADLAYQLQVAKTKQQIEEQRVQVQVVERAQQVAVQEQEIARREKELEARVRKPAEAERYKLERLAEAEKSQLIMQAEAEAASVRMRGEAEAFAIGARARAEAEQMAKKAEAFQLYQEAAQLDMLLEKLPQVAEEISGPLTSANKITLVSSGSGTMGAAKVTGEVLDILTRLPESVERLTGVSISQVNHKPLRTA

B1: Full-length human Homer 1, N-terminally hexahistidine-tagged (His-HsHomer 1) (natural protein)
chain: MGEQPIFSTRAHVFQIDPNTKKNWVPTSKHAVTVSYFYDSTRNVYRIISLDGSKAIINSTITPNMTFTKTSQKFGQWADSRANTVYGLGFSSEHHLSKFAEKFQEFKEAARLAKEKSQEKMELTSTPSQESAGGDLQSPLTPESINGTDDERTPDVTQNSEPRAEPTQNALPFSHSSAISKHWEAELATLKGNNAKLTAALLESTANVKQWKQQLAAYQEEAERLHKRVTELECVSSQANAVHTHKTELNQTIQELEETLKLKEEEIERLKQEIDNARELQEQRDSLTQKLQEVEIRNKDLEGQLSDLEQRLEKSQNEQEAFRNNLKTLLEILDGKIFELTELRDNLAKLLECS

Key:
[1] = molecular target: Full-length S. rosetta Flotillin 1 N-terminally tagged with GST (GST-SrFlotillin 1) (S. rosetta); experiment: […]
[2] = molecular target: T1, Full-length human Flotillin 1 …; experiment: pull-down

| Molecule | Kd [1] [nM] | Kd [2] [nM] |
| --- | --- | --- |
| Full-length Salpingoeca rosetta Homer, N-terminally hexahistidine-tagged (His-SrHomer) (natural protein) | 960 | – |
| B1 | – | ~830 |
